Experimental data from PMC3621209, “Biochemical properties of a novel thermostable and highly xylose-tolerant β-xylosidase/α-arabinosidase from Thermotoga thermarum” (Biotechnology for Biofuels, 2013).

B1: Tth xynB3 β-xylosidase (Pseudothermotoga thermarum DSM 5069) (protein)
chain: MDLYKNPNVPAKVRAKDLLSKMTLEEKIAQLGSVWSYELLTEDGKFSVEKAKEILKHGIGQITRPGGATNFEPPEVAKLVNEIQKFLVENTRLGIPAIMHEECLAGYMGLGATIFPQPIGMASTWDPELVEKITSAIREDLRKLGITQGLAPVLDVARDPRWGRTEETFGESPYLVAKMGVAYVKGLQGSDITKGVVATGKHFAGYSASEGGKNWAPTNIPPRELREVFLYPFEAAVKEAGLLSIMNSYSEIDGIPCASNRELLTDILRRTWGFEGIVVSDYFAVDMLAAYHRMAKNKAEAAKYALEAGIDIELPKTDCYLHLKSLVENGIISEKLLDEAVLRVLTLKFLLGLFENPYAEGGSLNDHNDIALEASRKSIVLLKNNGILPLKNDVKIALVGPTANDVRNLLGDYSYLVHIKTLLENVNATTFNAPKFNLKKVEELVEAHLKKIPSILAEFAKRAKEIYYAKGCDITDPSREGFAEALEAAKKADVVVAVVGDRSGLTIECTSGESRDMANLKLPGVQEEFILELTKVGKPIVVVLVTGRPYSLKAFVNKVNAIVQLWLPGETGAQALAEVIFGQVNPSGKLPISFPASAGQIPVFHYVKPSGGRSCWHGNYVDEDVKPLFPFGHGLSYTTFSYTNLRIEQQEIPIAGSVKLKVDVQNTGEIYGEEVVQLYISREHASVTRPVKELKGFARVKLQPKETKTVVFEIHTDVLAYYDRDMKLVVEPGEYKVLIGSSAEDIRCQGNFKVVGEKRLVQDNRVFFTNTKIE
notes: full length, 774 residues (2,322 bp), pET-20b NdeI/XhoI in E. coli BL21 (DE3), Ni-NTA purified after heat treatment; theoretical monomer 85,129 Da; 5-mer in solution (422,474 Da); primers […]; (N-terminal MDLYKNPNV)

What was measured:
[1] = biological target: Tth xynB3 β-xylosidase from Thermotoga thermarum DSM 5069 (Thermotoga thermarum DSM 5069); experiment: SEC; Superdex 200 10/30 GL column on an ÄKTA FPLC system; MW calculated from the calibration curve of the gel filtration column; oligomerization state of the purified native protein
[2] = substrate: O=[N+]([O-])c1ccc(O[C@@H]2O[C@@H](CO)[C@H](O)[C@H]2O)cc1; experiment: purified protein; assay type: biochemical, Pseudothermotoga thermarum; settings: 50 mM imidazole-potassium buffer pH 6.0, 85°C (standard conditions; text says optimal conditions)
[3] = substrate: O=[N+]([O-])c1ccc(O[C@@H]2OC[C@@H](O)[C@H](O)[C@H]2O)cc1; experiment: purified protein; assay type: biochemical, Pseudothermotoga thermarum; settings: 50 mM imidazole-potassium buffer pH 6.0, 85°C (standard conditions; text says optimal conditions)

Molecule	stoichiometry N [1]	Km [2]	Km [3]
Tth xynB3 β-xylosidase from Thermotoga thermarum DSM 5069 (enzyme)	5	–	–
B1	–	210 µM	270 µM
